This is an account of results in PMC12884772, “Macrophagic Sclerostin Loop2‐ApoER2 Interaction Required by Sclerostin for Cardiovascular Protective Action” (Advanced Science, 2025).

The test has as its target His-sclerostin loop2 (Limits are not printed (Table S1 not shown). Loop2 taken by convention as the cystine-knot segment Cys-Cys, mature 84-109 in mouse. The paper's mature numbering (I94..W99, with V97 specific to mouse)). Nature of the test: BLI; His-sclerostin loop2 loaded on anti-penta-HIS (HIS1K) biosensors, immersed in ApoER2-LA7 at different concentrations. As to conditions: both partners purified. For orientation: BLI is a label-free optical method that tracks binding on a fibre tip over time.

B1: ApoER2-LA7 (P290-L326) (peptide)
peptide: PCRENEFQCGDGTCVLAIKRCNQERDCPDGSDEAGCL
notes: LDLR type A repeat 7 (LA7) of ApoER2, P290-L326; The form with D-residues at the first and last three positions was used only in vivo and is not this molecule; also called ApoER2-Pep; ApoER2 peptide tool
For the molecule B1, the affinity, expressed as Kd, was 1900 nM.
